B1: Pistol ribozyme (parent)
chain: GGGUCGUUGUUCCAUAAUCGCGUGGAUAUGGCACGCAAGUUUCUACCGGGCACCGUAAAUGUCCGACUGGAGCCGUUCGGGCGGCUAUAAACAGACCUCAGGCCCGAAGCGUGGCGGCACCUGCCGCCGGUGGUAAAAAAGAUCGGAAGAGCACACGUCU

Variants of: B1
Assay: aptazyme ON/OFF ratio, guanine; higher = stronger switching; co-transcriptional cleavage with and without guanine

Variant	aptazyme ON/OFF ratio
U7A U8G G9U	3.18
U7A U8G G9C U10C U11G C13G	1.26
U7A U8G G9C U10C U11G C13U	1.23
U7A U8G G9C U10C U11G C13A	1.25
U7A U8G G9C U10C U11C C12G C13U	1.07
U7A U8G G9C U10C U11C C12G C13A	1.29
U7A U8G G9C U10C U11C C12G C13G	1.08
U7A U8G G9C U11A C13A	1.44
U7A U8G G9C U11A C13G	1.15
U7A U8G G9C U11A C13U	1.36
U7A U8G G9U U10C U11A C12U C13G	1.32
U7A U8G G9U U10C U11A C12U C13A	1.41
U7A U8G G9U U10C U11A C12U C13U	1.36
U7A U8G G9U C12G	1.64
U7A U8G G9U C12A	1.53
U7A U8G G9U C12U	1.62
U7A U8G G9U U10A U11G C12G C13A	1.05
U7A U8G G9U U10A U11G C12G C13G	1.14
U7A U8G G9U U10A U11G C12G C13U	1.52
U7A U8G G9C U10G U11A C12A C13U	1.47
U7A U8G G9C U10G U11A C12A C13A	1.16
U7A U8G G9C U10G U11A C12A C13G	1.38
U7A U8G G9U U10C U11A C12G C13A	1.27
U7A U8G G9U U10C U11A C12G C13G	1.28

Variant	aptazyme ON/OFF ratio
U7A U8G G9U U10C U11A C12G C13U	1.37
U7A U8G G9C U10G U11C	1.04
U7A U8G G9C U10G U11A	1.07
U7A U8G G9C U10G U11G	1.25
U7A U8G G9U U10A U11C C12A C13A	1.25
U7A U8G G9U U10A U11C C12A C13G	1.2
U7A U8G G9U U10A U11C C12A C13U	1.37
U7A U8G G9U U10C C13U	1.57
U7A U8G G9U U10C C13G	1.21
U7A U8G G9U U10C C13A	1.33
U7A U8G G9C U11C C13A	1.37
U7A U8G G9C U11C C13U	1.44
U7A U8G G9C U11C C13G	1.1
U7A U8G G9C U11G C13U	1.4
U7A U8G G9C U11G C13G	1.22
U7A U8G G9C U11G C13A	1.43
U7A U8G G9U U10A	1.18
U7A U8G G9U U10C	2.52
U7A U8G G9U U10C C12A C13A	1.46
U7A U8G G9U U10C C12A C13G	1.01
U7A U8G G9U U10C C12A C13U	1.35
U7A U8G G9U U10A U11A C12A C13A	1.24
U7A U8G G9U U10A U11A C12A C13G	1.25
U7A U8G G9U U10A U11A C12A C13U	1.42

Variant	aptazyme ON/OFF ratio
U7A U8G G9C U10C U11A C12U	1.13
U7A U8G G9C U10C U11A C12G	1.23
U7A U8G G9C U10C U11A C12A	1.21
U7A U8G G9C U10C C12G C13A	1.23
U7A U8G G9C U10C C12G C13U	1.46
U7A U8G G9C U10C C12G C13G	1.2
U7A U8G G9U U10C U11G C12G C13A	1.36
U7A U8G G9U U10C U11G C12G C13U	1.18
U7A U8G G9U U10C U11G C12G C13G	1.26
U7A U8G G9U U10C U11A C13A	1.44
U7A U8G G9U U10C U11A C13U	1.33
U7A U8G G9U U10C U11A C13G	1.33
U7A U8G G9C U10G C12U	1.44
U7A U8G G9C U10G C12A	1.27
U7A U8G G9C U10G C12G	1.15
U7A U8G G9C U10C C12G	1.4
U7A U8G G9C U10C C12A	1.15
U7A U8G G9C U10C C12U	1.24
U7A U8G G9U U10C U11A C12A C13G	1.37
U7A U8G G9U U10C U11A C12A C13A	1.26
U7A U8G G9U U10C U11A C12A C13U	1.47
U7A U8G G9C U10C U11G C12A C13G	1.15
U7A U8G G9C U10C U11G C12A C13U	1.06
U7A U8G G9C U10C U11G C12A C13A	1.17

Variant	aptazyme ON/OFF ratio
U7A U8G G9U U10A U11C C13A	1.02
U7A U8G G9U U10A U11C C13U	0.998
U7A U8G G9U U10A U11C C13G	1.09
U7A U8G G9C U11C C12U C13A	1.41
U7A U8G G9C U11C C12U C13G	1.38
U7A U8G G9C U11C C12U C13U	1.22
U7A U8G G9U U10C U11C C12G C13A	1.2
U7A U8G G9U U10C U11C C12G C13G	1.11
U7A U8G G9U U10C U11C C12G C13U	1.46
U7A U8G G9C U10G C12A C13A	1.31
U7A U8G G9C U10G C12A C13U	1.56
U7A U8G G9C U10G C12A C13G	1.1
U7A U8G G9U U10A U11C C12A	1.39
U7A U8G G9U U10A U11C C12U	1.04
U7A U8G G9U U10A U11C C12G	1.43
U7A U8G G9U C12A C13U	1.2
U7A U8G G9U C12A C13G	1.44
U7A U8G G9U C12A C13A	1.28
U7A U8G G9C U11A C12A C13G	1.37
U7A U8G G9C U11A C12A C13A	1.25
U7A U8G G9C U11A C12A C13U	1.47
U7A U8G G9C U10G U11G C12G C13G	1.24
U7A U8G G9C U10G U11G C12G C13A	1.32
U7A U8G G9C U10G U11G C12G C13U	1.14

Variant	aptazyme ON/OFF ratio
U7A U8G G9U U10C U11C C12U	1.36
U7A U8G G9U U10C U11C C12A	1.3
U7A U8G G9U U10C U11C C12G	1.37
U7A U8G G9U U10C U11G C12G	1.45
U7A U8G G9U U10C U11G C12A	1.5
U7A U8G G9C U10C U11G C12G C13U	1.09
U7A U8G G9C U10C U11G C12G C13A	1.18
U7A U8G G9C U10C U11G C12G C13G	1.18
U7A U8G G9C U10C U11A C12G C13U	1.17
U7A U8G G9C U10C U11A C12G C13G	1.21
U7A U8G G9C U10C U11A C12G C13A	1.23
U7A U8G G9U U10A U11A C13U	1.39
U7A U8G G9U U10A U11A C13G	1.15
U7A U8G G9U U10A U11A C13A	1.48
U7A U8G G9C U11C C12A C13G	1.18
U7A U8G G9C U11C C12A C13A	1.17
U7A U8G G9C U11C C12A C13U	1.66
U7A U8G G9U U10A U11G C13U	1.37
U7A U8G G9U U10A U11G C13A	1.14
U7A U8G G9U U10A U11G C13G	1.12
U7A U8G G9C U11G C12U C13A	1.44
U7A U8G G9C U11G C12U C13U	1.4
U7A U8G G9C U11G C12U C13G	1.41
U7A U8G G9C U10C U11C C12U C13U	1.01

Variant	aptazyme ON/OFF ratio
U7A U8G G9C U10C U11C C12U C13A	1.05
U7A U8G G9C U10C U11C C12U C13G	1.06
U7A U8G G9U U10A U11A C12G C13A	1.36
U7A U8G G9U U10A U11A C12G C13G	1.28
U7A U8G G9U U10A U11A C12G C13U	1.22
U7A U8G G9U U10A U11G C12G	1.19
U7A U8G G9U U10A U11G C12A	1.06
U7A U8G G9U U10A U11G C12U	1.17
U7A U8G G9C U10A U11G C13G	1.26
U7A U8G G9C U10A U11G C13U	1.37
U7A U8G G9C U10A U11G C13A	1.29
U7A U8G G9C U10C U11G C12U C13G	1.15
U7A U8G G9C U10C U11G C12U C13A	1.15
U7A U8G G9C U10C U11G C12U C13U	1.41
U7A U8G G9C U10C U11C C12A C13A	1.01
U7A U8G G9C U10C U11C C12A C13G	1.06
U7A U8G G9C U10C U11C C12A C13U	1.04
U7A U8G G9C U10C C12A C13G	1.05
U7A U8G G9C U10C C12A C13A	1.08
U7A U8G G9C U10C C12A C13U	1.12
U7A U8G G9U U10C C12G C13G	1.16
U7A U8G G9U U10C C12G C13U	1.68
U7A U8G G9U U10C C12G C13A	1.39
U7A U8G G9U U10A U11G C12U C13G	1.16

Variant	aptazyme ON/OFF ratio
U7A U8G G9U U10A U11G C12U C13A	1.08
U7A U8G G9U U10A U11G C12U C13U	1.18
U7A U8G G9C U10G C13U	1.17
U7A U8G G9C U10G C13A	1.52
U7A U8G G9C U10G C13G	1.19
U7A U8G G9C U10G U11C C12A C13A	1.38
U7A U8G G9C U10G U11C C12A C13U	1.29
U7A U8G G9C U10G U11C C12A C13G	1.22
U7A U8G G9U U10C C12U C13U	1.31
U7A U8G G9U U10C C12U C13G	1.54
U7A U8G G9U U10C C12U C13A	1.34
U7A U8G G9U C12G C13A	1.22
U7A U8G G9U C12G C13U	1.33
U7A U8G G9U C12G C13G	1.4
U7A U8G G9C U10C C13G	1.1
U7A U8G G9C U10C C13U	1.28
U7A U8G G9C U10C C13A	1.09
U7A U8G G9C U11G C12G C13U	1.22
U7A U8G G9C U11G C12G C13A	1.1
U7A U8G G9C U11G C12G C13G	1.18
U7A U8G G9C U10C U11A C12U C13G	1.18
U7A U8G G9C U10C U11A C12U C13A	1.13
U7A U8G G9C U10C U11A C12U C13U	1.2
